Assay [1] has as its target peptide with N-terminal phosphotyrosine. The experiment in a line: biolayer interferometry (Blitz), peptide-coated sensor, NAAB in 1x PBS, 1:1 fit, kd/ka.
Assay [2] addresses T1, Leu.
T1 sequence (peptide): LGMMGSSC
The experiment in a line: single-molecule TIRF, Cy5-labelled protein on peptide immobilized on nanogel.

The text below walks through data of US20210072252A1.

Broadly, the Kd is the concentration at which binding is half-saturated. High values mean a looser complex, low ones a tighter complex.

B1: Phosphotyrosine NAAB (designed binder)
chain: MDEFEMIKRNTSEIISELREVLKKDEKSALIGFEPSGKIHLGHYLQKKMIDLQNAGFDIIIPLADLHAYLNQKGELDEIRKIGDYNKKVFEAMLKAKYVYGSEFQLDKYTLNVYRLALKTTLKARRSMELIAREDENPVAEVIYPIMQVNGCHYKGVDVAVGGMEQRKIMLARELLPKKVVCIHPVLTGLDGEGKMSSSGNFIAVDDSPEEIRAFKKAYCPAGVVEGNPEIAKYFLEYPLTIKPEKFGGDLTVNSYEESLFKNKELHPMDLKAVAEELIKILEPIRK
For the molecule B1, the Kd in assay [1] came out at 1070 nM.

B2: engineered MetRS domain (Met NAAB), GST-MetRS fusion labeled with Cy5 (designed binder, not shown: a dimerising Fc or GST)
chain: AKKILVTCASPYANGSIHLGHMLEHIQADVWVRYQRMRGHEVNFICADDAHGTPIMLKAQQLGITPEQMIGEMSQEHQTDFAGFNISYDNYHSTHSEENRQLSELIYSRLKENGFIKNRTISQLYDPEKGMFLPDRFVKGTCPKCKSPDQYGDNCEVCGATYSPTELIEPKSVVSGATPVMRDSEHFFFDLPSFSEMLQAWTRSGALQEQVANKMQEWFESGLQQWDISRDAPYFGFEIPNAPGKYFYVWLDAPIGLMGSFKNLCDKRGDSVSFDEYWKKDSTAELYHFIGKGIVYFLSLFWPAMLEGSNFRKPSNLFVHGYVTVNGAKMSKSRGTFIKASTWLNHFDADSLRYYYTAKLSSRIDDIDLNLEDFVQRVNADIVNKVVNLASRNAGFINKRFDGVLASELADPQLYKTFTDAAEVIGEAWESREFGKAVREIMALADLANRYVDEQAPWVVAKQEGRDADLQAICSMGINLFRVLMTYLKPVLPKLTERAEAFLNTELTWDGIQQPLLGHKVNPFKALYNRIDMRQVEALVEASK
modifications: Cy5 fluorophore on lysine side chains
Regarding B2, the Counts in assay [2] was 49 counts.
